In US20240279318A1 (published 2024) one finds Kd and EC50 data, which are given here for 13 molecules.

In assay [1] the target is A*02:11. The assay can be described thus: SPR. (In SPR one partner is held on a chip, and binding of the other changes the refractive index at the surface.)
Assay [2] deals with A*02:06. Briefly: SPR.
Assay [3] deals with A*02:03. The assay can be described thus: SPR; low fitting confidence.
The target in assay [4] is A*02:07. The assay can be described thus: SPR; low fitting confidence.
Assay [5] addresses A*02:02. Briefly: SPR; low fitting confidence.
Assay [6] has as its target A*02:05. The assay can be described thus: SPR; low fitting confidence.
Assay [7] deals with A*02:05. Briefly: SPR.
The target of assay [8] is A*02:11. Briefly: SPR; low fitting confidence.
Assay [9] has as its target A*02:03. The assay can be described thus: SPR.
Assay [10] concerns the target A*02:02. The assay can be described thus: SPR.
The target in assay [11] is A*02:11. The assay can be described thus: SPR; head prints KD(1/s).
Assay [12] deals with A*02:03. Briefly: SPR; head prints KD(1/s).
The target in assay [13] is A*02:07. The assay can be described thus: SPR; head prints KD(1/s).
Assay [14] addresses A*02:02. The assay can be described thus: SPR; head prints KD(1/s).
Assay [15] deals with A*02:05. The assay can be described thus: SPR; head prints KD(1/s).
In assay [16] the target is A*02:06. Briefly: SPR; head prints KD(1/s).
The next assay addresses AFP158 loaded T2 cells (human;, UniProt P61769 21-119). Briefly: flow cytometry.
Assay [17] deals with AFP158/HLA-A*02:01 complex. Briefly: SPR; head prints KD(1/s).
For assay [18], the target named is AFP158/HLA-A*02:01 complex. Briefly: SPR.
The target in assay [19] is A*02:11. Briefly: SPR. This is another data set of the same source.
The target in assay [20] is A*02:07. Briefly: SPR.
The target in assay [21] is A*02:06. Briefly: SPR. The source holds these as a separate data set.
Assay [22] has as its target A*02:03. The assay can be described thus: SPR; low fitting confidence. This is another data set of the same source.
For assay [23], the target named is A*02:02. Briefly: SPR; low fitting confidence. This is another data set of the same source.
The target in assay [24] is A*02:05. Briefly: SPR; low fitting confidence. This is another data set of the same source.
For assay [25], the target named is A*02:03. The assay can be described thus: SPR. This is another data set of the same source.
For assay [26], the target named is A*02:11. Briefly: SPR; low fitting confidence. The source holds these as a separate data set.
Assay [27] addresses A*02:07. Briefly: SPR; low fitting confidence. This is another data set of the same source.
Assay [28] concerns the target A*02:05. The assay can be described thus: SPR. This is another data set of the same source.

Substitutions are numbered along the chain they refer to. Names may count otherwise.

B1: AS179723 VL1g1VH1g1-N73Y (Fc fusion)
chain: QSVLTQPPSASGTPGQRVTISCSGSSNNIGGNYVNWYQQLPGTAPKLLIYDNKNRPSGVPDRFSGSKSGTSASLAISGLQSEDEADYYCASWDDSLSAVVFGGGTKLTVLGGGGSGGGGSGGGGSEVQLVESGGGLVQPGGSLRLSCAASGFTFLNYAMSWVRQAPGKGLEWVSSNSGAGSTYYADSVKGRFTISRDYSKNTLYLQMNSLRAEDTAVYYCAKGTNVGSWSSLHYWGQGTLVTVSS
As for B1, the Kd with A*02:11 [1] was 700 nM; in the assay with A*02:06 [2], 220 nM; in the assay with A*02:03 [3], > 6100 nM; with A*02:07 [4] it was > 1700 nM; in the assay with A*02:02 [5] it was > 77000 nM; with A*02:05 [6] it was > 17000 nM.

B2: AS179732 VL1g1VH1g1-N73Y (Fc fusion)
chain: B1 chain with N27S, K53S, P56A, A98G, V99A
Take B2: the Kd with A*02:05 [7] is 17000 nM; with A*02:06 [2] it was 220 nM; with A*02:11 [8], > 1000 nM; with A*02:03 [3] it was > 11000 nM; with A*02:07 [4] it was > 2400 nM; in the assay with A*02:02 [5] it was > 29000 nM.

B3: AS179732 (Fc fusion)
chain: NFMLTQPPSMSGSPRQSVTISCTGSSSNIGGNYVNWYQHLPGTAPKLLIYDNSNRASGVPERFSGSKSGSSASLTITGLQAEDEGDYYCASWDDSLSGAVFGGGTHLTVLGGGGSGGGGSGGGGSEVQLVESGGGLVQPGGSLRLSCAASGFTFLNYAMSWVRQAPGKGLEWVSSNSGAGSTYYSDSVKGRFTISRDYAKNVVYLQLNSLKTEDTGMYYCAKGTNVGSWSSLHYWGQGTQVTVSS
For the molecule B3, the dissociation constant (Kd) with A*02:11 [1] was 656 nM; in the assay with A*02:03 [9] it was 2140 nM; with A*02:02 [10], 19000 nM; in the assay with A*02:05 [7], 26200 nM; in the assay with A*02:06 [2] it was 191 nM; in the assay with A*02:07 [4], > 770 nM.

B4: AS190259 VL1VH1 (Fc fusion)
chain: SSELTQDPAVSVALGQTVRITCQGGGYYVNWYQQKPGQAPVLVIYLNTNRPSGIPDRFSGSSSGNTASLTITGAQAEDEADYYCQSADSSGNSAVFGGGTKLTVLGGGGSGGGGSGGGGSEVQLVESGGGLVQPGGSLRLSCAASGFTFSSYAMSWVRQAPGKGLEWVSAINSGGGSTYYADSVKGRFTISRDNSKNTLYLQMNSLRAEDTAVYYCAKAASGYGGSWWGDATLDAWGQGTLVTVSS
With B4, the Kd with A*02:11 [11] worked out at 6700 nM; with A*02:03 [12], 48000 nM; with A*02:07 [13], 3500 nM; in the assay with A*02:02 [14], 970 nM; with A*02:05 [15], 7000 nM; with A*02:06 [16], 800 nM.

B5: AS190259 (Fc fusion)
chain: QSVVTQPSAVSVSLEETATITCQGGGYYVNWYQQKPGQAPVLVIYLNTNRPSGIPERFSASKSGGTATLTINGAQAEDEAAYYCQSADSSGNSAVFGGGTHLTVLGGGGSGGGGSGGGGSQVQLVQSGGGLVQPGGSLRLSCAASGFTFSSYAMSWVRQAPGKGLEWVSAINSGGGSTYYADSVKGRFTISRDNAKNTLYLQLNSLKTEDTAMYYCAKAASGYGGSWWGDATLDAWGQGTLVTVSS
For the molecule B5, the Kd with A*02:11 [11] is 4500 nM; in the assay with A*02:03 [12], 35000 nM; in the assay with A*02:07 [13], 2500 nM; with A*02:02 [14], 660 nM; with A*02:05 [15], 3800 nM; with A*02:06 [16] it was 520 nM.

B6: AS190259 scFv-mIgG2aFc (Fc fusion)
chain: B5 chain
In turn, B6 returned an EC50 with AFP158 loaded T2 cells of 3.76 nM. The Kd in assay [17] was 100 nM.

B7: AS170036 VL1VH1-56Y98Q108S (scFv)
scFv: QSALTQPRSVSGSPGQSVTISCAGTSSDVGSENYVSWYQQHPGKAPKLMIYQVNKRASGVPDRFSGSKSGNTASLTISGLQAEDEADYYCASYRSSDQNIVFGGGTKLTVLGGGGSGGGGSGGGGSEVQLVESGGGLVQPGGSLRLSCAASGFTFSSYAMSWVRQAPGKGLEWVSTINSGTYSPYYADSVKGRFTISRDNSKNTLYLQMNSLRAEDTAVYYCAKNFFDGSWFLSPPAMDYWGQGTLVTVSSHHHHHH
In the case of B7, the dissociation constant Kd is 7 nM in assay [18]; 290 nM in the assay with A*02:11 [19]; 1500 nM with A*02:07 [20]; 89 nM with A*02:06 [21]; < 18 nM in the assay with A*02:03 [22]; > 3100 nM with A*02:02 [23]. The Kd with A*02:05 [24] was > 1400 nM.

B8: AS170036 VL1VH1-56N108A (scFv)
scFv: B7 scFv with Q98H, Y182N, S234A
For the molecule B8, the Kd in [18] was 27 nM; with A*02:03 [25], 6700 nM; with A*02:06 [21] it was 320 nM; with A*02:11 [26], > 500 nM; with A*02:07 [27], > 9100 nM; with A*02:02 [23] it was > 3700 nM. For the same molecule, in the assay with A*02:05 [24], the Kd is > 2000 nM.

B9: AS170036 VL1VH1-57K108S (scFv)
scFv: B7 scFv with Q98H, Y182G, S183K
Regarding B9, the Kd in assay [18] was 35 nM; with A*02:11 [19] it was 370 nM; with A*02:07 [20], 10000 nM; with A*02:06 [21] it was 500 nM; in the assay with A*02:03 [22], < 10 nM; in the assay with A*02:02 [23], > 1400 nM.

B10: AS170036 VL1VH1-56Y98I108S (scFv)
scFv: B7 scFv with Q98I
For the molecule B10, the Kd in assay [18] came out at 2.4 nM; with A*02:11 [19], 160 nM; with A*02:03 [25], 950 nM; in the assay with A*02:07 [20], 1000 nM; with A*02:05 [28], 2400 nM; with A*02:06 [21], 69 nM. The equilibrium dissociation constant (Kd) with A*02:02 [23] is > 4500 nM.

B11: AS170036 VL1VH1-98I108A (scFv)
scFv: B7 scFv with Q98I, Y182G, S234A
For the molecule B11, the Kd in [18] is 22 nM; in the assay with A*02:06 [21] it was 330 nM; with A*02:11 [26], > 250 nM; in the assay with A*02:03 [22] it was > 31000 nM; with A*02:07 [27] it was > 16000 nM; with A*02:02 [23] it was > 530 nM. Also, the Kd with A*02:05 [24] is > 1100 nM.

B12: AS170036 VL1VH1-56N98I (scFv)
scFv: B7 scFv with Q98I, Y182N, S234G
On to B12, for which the dissociation constant Kd in assay [18] was 41 nM; with A*02:03 [25], 2700 nM; in the assay with A*02:05 [28], 2100 nM; with A*02:06 [21], 570 nM; in the assay with A*02:11 [26] it was > 500 nM; in the assay with A*02:07 [27], > 17000 nM. Also, the Kd with A*02:02 [23] is > 3200 nM.

B13: AS170036 VL1VH1 (Fc fusion)
chain: QSALTQPRSVSGSPGQSVTISCAGTSSDVGSENYVSWYQQHPGKAPKLMIYQVNKRASGVPDRFSGSKSGNTASLTISGLQAEDEADYYCASYRSSDHNIVFGGGTKLTVLGGGGSGGGGSGGGGSEVQLVESGGGLVQPGGSLRLSCAASGFTFSSYAMSWVRQAPGKGLEWVSTINSGTGSPYYADSVKGRFTISRDNSKNTLYLQMNSLRAEDTAVYYCAKNFFDGSWFLGPPAMDYWGQGTLVTVSS
B13: the Kd is 2770 nM with A*02:06 [2], > 14000 nM with A*02:11 [8], > 1200 nM with A*02:07 [4] and > 71000 nM with A*02:02 [5].

In general, Kd refers to the free concentration of one partner at which half of the binding sites on the other are occupied at equilibrium, for simple one-to-one binding. The low end stands for tighter binding, the high end for weaker binding. In general, EC50 refers to the midpoint of the concentration-response curve. A lower EC50 goes with higher potency in that assay.
